Reference: PMC7610252 (Biochemistry, 2017)

B1: FixB subunit of the FixABCX complex from Azotobacter vinelandii (natural protein, UniProt P53574 2-360, looked up)
chain: SEQPKKPTKKKVELDPRFVDVRHVWVCIESERGVVHPVSWELLGEGRKSVDALGGELYGVVICGPGERGKEICGEPVQHGADKAYLLQHEILRDYRNEPYTKALTDLVTATQPEILMLGATTLGRDLAGSVATTLGTGLVADCTELVIDTETRNLASTRPTFDGSLLCKPSSAQRHRPQMATVRPRMAMPEPDASRSGEIIEVPFSMIETDIITKVLEFIPDDTRDKPNLPFADIIVAGGRGLRNQENFQLVWDLAKVLGAEVGASRPIVQAGWAELDRQVGQSGKTVRPKLYIAAGISGAIQHRVGMDGADVIIAINTDPNAPIFDFAHYGIVGNAITVLPALTEAFKARLGQLKKAG
B2: FixA subunit of the FixABCX complex from Azotobacter vinelandii (natural protein, UniProt P53576 1-281, looked up)
chain: MHSVVCIKQLPDSAQIRVHPVTNTIMRQGVPAIINPYDLFALEEALRLKDKFGGTVTVVTMGPPMAEAALRKCLSFGADDAILVSDRAFAGSDTLATSYALSAVIRKIMEDMPVDLIFTGKQTIDGDTAQVGPGIAKRLDYQLLTYVSRIVDVDTAKKEIQVERRAEGGVQLLETSLPCLITMLEGTNEMRFGDLDDLFRAARHELKVWDRVAAGIDTVEMIGLKGSPTVVSKVFAPKPRSKRAELIESHDSDPKNLAEAALAKLFTQHPNLEQEIAKRAV
B3: FixC subunit of the FixABCX complex from Azotobacter vinelandii (natural protein, UniProt P53572 2-427, looked up)
chain: AERFDVIVVGAGMAGNAAAYTLAKGGLKVLQIERGETPGSKNVQGAILYADAIEKIIPDFRDDAPLERHLIEQRVWVMDDASYGYHYRSEDFNKPPYNRYTIIRVHFDQWFNKKAREAGVLTICETRHDLLIEGGKVVGVRTDRQGGEVRADAVILADGVNSRLAVKAGFSRDQPENWALAVKEIHFLPQETMEARFNIGEEEAAIEMAGKIDAGMMGTGFLYTNKESITLGVGCMLSDFKQQKISPYELLDRMKTHPSIAPLIAGSDMKEYAAHLIPEGGYNAIPQVYGDGWMIAGDAPIRHGIHREGSNLAMTTGMLAAQTLVELRAADKPFSAANLAEYKKKLDDSFVMKDLKKYRRMPEIFHKNKQFFTTYPDLLSRAAQTLIRVDGVDKKTKEKEIKKSFIGLRSLFGLIGDAFKFWRAVE

What was measured:
[1] = target: FixAB from Rhodospirillum rubrum (Rhodospirillum rubrum, UniProt Q6US86+Q6US87); experiment: transient absorption spectroscopy of bound flavin; format: binding; conditions: FAD-reconstituted, as-isolated oxidized state; room temperature
[2] = target: B3; experiment: co-purification
[3] = target: B1; experiment: co-purification
[4] = target: T1, FixX subunit of the FixABCX complex from Azotobacter vinelandii (Azotobacter vinelandii, UniProt P53658 1-94); experiment: co-purification
T1 sequence (looked up): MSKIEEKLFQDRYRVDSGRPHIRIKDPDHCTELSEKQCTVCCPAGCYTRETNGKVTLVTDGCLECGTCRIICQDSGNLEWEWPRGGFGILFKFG

Cc1cc2nc3c(=O)[nH]c(=O)nc-3n(C[C@H](O)[C@H](O)[C@H](O)COP(=O)(O)OP(=O)(O)OC[C@H]3O[C@@H](n4cnc5c(N)ncnc54)[C@H](O)[C@@H]3O)c2cc1C [FAD]
transient absorption spectroscopy of bound flavin [1]: two ASQ species can be formed in the FixAB unit, consistent with the presence of two flavins

B1
stoichiometry N [2]: 1

B2
stoichiometry N [3]: 1

B3
stoichiometry N [4]: 1
